The record followed here is article PMC10053787, “A New Gene SCY3 Homologous to Scygonadin Showing Antibacterial Activity and a Potential Role in the Sperm Acrosome Reaction of Scylla paramamosain” (International Journal of Molecular Sciences, 2023).

One experiment deals with T1, rSCY5.
T1 construct: gene SCY5; biotinylated for BLI
As to the kind of experiment: biolayer interferometry (Octet). The note with it: biotinylated protein on Super Streptavidin sensor; progesterone 0.125-4 mM; phosphate-saline buffer pH 7.4, 0.02% Tween 20; room temperature. Type of experiment: binding, Scylla paramamosain.

The next experiment addresses T2, rSCY3 (Scylla paramamosain, UniProt A0AAW0UC28).
T2 construct: gene O3P69_004699; precursor printed as 124 aa; biotinylated for BLI
T2 sequence (A0AAW0UC28 11-110): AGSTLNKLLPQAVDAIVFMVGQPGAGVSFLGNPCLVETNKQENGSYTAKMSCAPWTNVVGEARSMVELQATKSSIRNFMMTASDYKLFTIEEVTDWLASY
As to the kind of experiment: biolayer interferometry (Octet). The experiment is classed as binding. The note with it: biotinylated protein on Super Streptavidin sensor; progesterone 0.125-4 mM; phosphate-saline buffer pH 7.4, 0.02% Tween 20; room temperature.

Another experiment concerns the target T3, rSCY4.
T3 construct: gene SCY4; biotinylated for BLI
As to the kind of experiment: biolayer interferometry (Octet). Type of experiment: binding, Scylla paramamosain. The note with it: biotinylated protein on Super Streptavidin sensor; progesterone 0.125-4 mM; phosphate-saline buffer pH 7.4, 0.02% Tween 20; room temperature.

Experiment [1] addresses Recombinant His-tagged SCY1 (Scylla paramamosain). As to the kind of experiment: SPR; Biacore T200, CM5 chip; rSCY1-4 immobilised (~200 resonance units), blank or rTrx reference cell; rSCY1-5 diluted in PBS and injected (28.8 to 0.45 µM), multiple cycle kinetics, 25 °C, 120-s association and 120-s dissociation.
The target in experiment [2] is Recombinant His-tagged SCY2 (Scylla paramamosain). The experiment is described as above.

In the case of `CC(=O)[C@H]1CC[C@H]2[C@@H]3CCC4=CC(=O)CC[C@]4(C)[C@H]3CC[C@]12C` [progesterone], the Kd is 25300 µM on rSCY5, 30800 µM on rSCY3 and 2280 µM on rSCY4.

As to “Recombinant His-tagged SCY2 (natural protein)”, the dissociation constant (Kd) in experiment [1] amounted to 11.3 µM.

In the case of “Recombinant His-tagged SCY3 (natural protein)”, the Kd stood at 4.12 µM in experiment [1] and 0.62 µM in experiment [2].

For “Recombinant His-tagged SCY4 (natural protein)”, the dissociation constant Kd was determined as 6.86 µM in experiment [1] and 14 µM in experiment [2].

As for “Recombinant Trx-tagged SCY5 (natural protein)”, the Kd was determined as 0.14 µM in experiment [1] and 0.15 µM in experiment [2].
